# Source: paper PMC2734569, “Functional mapping of the fission yeast DNA polymerase δ B-subunit Cdc1 by site-directed and random pentapeptide insertion mutagenesis” (BMC Molecular Biology, 2009)
# T1: Cdc1-A7 (Schizosaccharomyces pombe, UniProt P87324 1-462, Gly344Ala)
# T1 construct: Cdc1, S. pombe, point mutant; source: yeast two-hybrid fusion, in S. cerevisiae CTY10-5d
# T1 sequence (looked up): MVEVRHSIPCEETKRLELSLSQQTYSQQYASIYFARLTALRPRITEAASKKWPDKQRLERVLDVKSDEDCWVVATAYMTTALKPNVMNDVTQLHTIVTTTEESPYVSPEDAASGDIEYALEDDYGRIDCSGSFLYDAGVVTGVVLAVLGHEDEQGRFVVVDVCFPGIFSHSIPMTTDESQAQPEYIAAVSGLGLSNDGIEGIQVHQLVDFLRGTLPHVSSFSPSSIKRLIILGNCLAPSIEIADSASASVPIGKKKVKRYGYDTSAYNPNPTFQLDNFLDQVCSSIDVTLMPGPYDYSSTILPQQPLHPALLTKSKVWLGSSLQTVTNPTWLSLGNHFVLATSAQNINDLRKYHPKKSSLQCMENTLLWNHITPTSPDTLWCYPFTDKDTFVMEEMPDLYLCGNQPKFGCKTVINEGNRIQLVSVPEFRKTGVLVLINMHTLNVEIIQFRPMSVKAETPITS
# T2: Cdc1-J15 (Schizosaccharomyces pombe, UniProt P87324 1-462, Gln-GlyValProLeuGln-Val)
# T2 construct: Cdc1, S. pombe, with a pentapeptide inserted after residue 203; source: yeast two-hybrid fusion, in S. cerevisiae CTY10-5d
# T2 sequence (looked up): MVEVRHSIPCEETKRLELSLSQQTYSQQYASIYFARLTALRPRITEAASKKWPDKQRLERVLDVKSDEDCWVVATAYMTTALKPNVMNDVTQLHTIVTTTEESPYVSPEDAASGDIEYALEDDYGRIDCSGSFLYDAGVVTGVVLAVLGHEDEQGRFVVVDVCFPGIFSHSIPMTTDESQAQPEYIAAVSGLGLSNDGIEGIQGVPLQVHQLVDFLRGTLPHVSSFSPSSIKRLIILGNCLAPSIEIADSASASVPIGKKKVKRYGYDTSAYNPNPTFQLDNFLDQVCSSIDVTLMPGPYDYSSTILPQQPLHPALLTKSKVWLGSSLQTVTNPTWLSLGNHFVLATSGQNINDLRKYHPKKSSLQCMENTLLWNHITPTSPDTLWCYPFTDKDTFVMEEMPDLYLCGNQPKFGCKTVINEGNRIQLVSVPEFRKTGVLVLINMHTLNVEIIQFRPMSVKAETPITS
# T3: Cdc1-J2 (Schizosaccharomyces pombe, UniProt P87324 1-462, Tyr-ArgGlyThrProTyr-Ser)
# T3 construct: Cdc1, S. pombe, with a pentapeptide inserted after residue 25; also called J18; J20; source: yeast two-hybrid fusion, in S. cerevisiae CTY10-5d
# T3 sequence (looked up): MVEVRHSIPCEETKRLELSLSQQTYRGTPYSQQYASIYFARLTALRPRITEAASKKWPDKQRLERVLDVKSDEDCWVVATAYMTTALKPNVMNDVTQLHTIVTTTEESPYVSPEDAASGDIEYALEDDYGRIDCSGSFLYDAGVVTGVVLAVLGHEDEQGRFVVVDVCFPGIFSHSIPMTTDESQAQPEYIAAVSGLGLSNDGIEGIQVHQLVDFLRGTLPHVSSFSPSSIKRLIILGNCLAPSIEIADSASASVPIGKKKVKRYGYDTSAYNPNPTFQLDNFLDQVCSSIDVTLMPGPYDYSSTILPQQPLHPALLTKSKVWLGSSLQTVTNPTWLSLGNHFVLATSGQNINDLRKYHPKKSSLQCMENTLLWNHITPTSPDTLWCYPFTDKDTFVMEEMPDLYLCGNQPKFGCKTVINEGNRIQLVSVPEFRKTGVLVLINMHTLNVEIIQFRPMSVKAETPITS
# T4: Cdc1-E1 (Schizosaccharomyces pombe, UniProt P87324 1-462, Ser-GlyValProGlnSer-Asp)
# T4 construct: Cdc1, S. pombe, with a pentapeptide inserted after residue 66; source: yeast two-hybrid fusion, in S. cerevisiae CTY10-5d
# T4 sequence (looked up): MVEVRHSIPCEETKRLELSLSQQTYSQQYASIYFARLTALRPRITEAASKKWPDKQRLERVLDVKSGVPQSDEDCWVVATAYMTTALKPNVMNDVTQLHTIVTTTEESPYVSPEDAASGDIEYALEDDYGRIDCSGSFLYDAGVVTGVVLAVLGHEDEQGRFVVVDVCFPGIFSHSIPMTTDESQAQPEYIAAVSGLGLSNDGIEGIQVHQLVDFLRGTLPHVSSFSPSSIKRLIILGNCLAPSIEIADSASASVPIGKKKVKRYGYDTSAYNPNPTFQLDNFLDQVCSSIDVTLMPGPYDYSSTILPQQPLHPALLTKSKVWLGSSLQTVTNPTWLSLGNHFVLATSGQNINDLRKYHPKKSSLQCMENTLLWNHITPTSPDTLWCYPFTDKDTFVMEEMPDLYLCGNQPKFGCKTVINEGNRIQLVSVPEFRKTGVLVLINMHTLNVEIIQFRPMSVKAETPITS
# How the values were obtained:
# Assay in all cases: two-hybrid; LexA-Cdc1 bait (pBTM116 or pBTM116BN) with Gal4 activation domain-Cdc27 prey (pGAD2F-Cdc27) in S. cerevisiae CTY10-5d; ONPG liquid culture beta-galactosidase assay, mean of triplicates, as percent of wild-type Cdc1
# Settings in all cases: partners not purified
# Cdc1-A7 = biological target: T1, Cdc1-A7
# Cdc1-J15 = biological target: T2, Cdc1-J15
# Cdc1-J2 = biological target: T3, Cdc1-J2
# Cdc1-E1 = biological target: T4, Cdc1-E1
binder,measurement,setting,value
"Cdc27 (fission yeast DNA polymerase delta C-subunit) (natural protein, Schizosaccharomyces pombe, UniProt P30261 1-372, looked up, DNA polymerase delta C-subunit Cdc27, S. pombe; prey plasmid pGAD2F-Cdc27; also called pGAD2F-Cdc27; source: yeast two-hybrid fusion, in S. cerevisiae CTY10-5d) MEEWRNFLDIKVINESSLVTVDNLSLQLDISSEKAQEYLNMFYQGNDFLYPIYLIHGQPIDDEINLEIDEESQPISNFPVLQYILCDKSSLQEKQSRLKSGYKTVIFALSSAPLSDFDELLPAVYEIREKDVLYKKEDADKYGFIFNENSVPRVLKKAPSTHSPQLSVPSKTSTIDKTDTRSTEKTKGKDIFSNARNQKGNSSRKNKKAPLENHKEKEPLLPKEEKLSEQAKRERDDLKNIMQLEDESVSTTSVHDSEDDNLDSNNFQLEIGTEAKSAAPDEPQEIIKSVSGGKRRGKRKVKKYATTKDEEGFLVTKEEEVWESFSEDENISTGTSNVVRNKPTTVNIATKKKNTAQSKPQQKSIMSFFGKK","two-hybrid beta-galactosidase activity, % of wild-type Cdc1",Cdc1-A7,< 1%
same,"two-hybrid beta-galactosidase activity, % of wild-type Cdc1",Cdc1-J15,78%
same,"two-hybrid beta-galactosidase activity, % of wild-type Cdc1",Cdc1-J2,< 1%
same,"two-hybrid beta-galactosidase activity, % of wild-type Cdc1",Cdc1-E1,1%
